target: T1, human CTLA-4 (amino acids M1-N223) on stably transfected VI-fibroblast cells (human, UniProt P16410 36-223); test: ECL cell binding, VI-fibroblast/hCTLA-4 cells;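 also: antibodies bound to the cells on carbon electrode plates, detected via SULFO-TAG anti-IgG secondary (1 h, RT), electrochemiluminescence read as RLU over a concentration range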
T1 construct: also called VI-fibroblast/hCTLA-4
T1 sequence (P16410 36-223 limits assumed): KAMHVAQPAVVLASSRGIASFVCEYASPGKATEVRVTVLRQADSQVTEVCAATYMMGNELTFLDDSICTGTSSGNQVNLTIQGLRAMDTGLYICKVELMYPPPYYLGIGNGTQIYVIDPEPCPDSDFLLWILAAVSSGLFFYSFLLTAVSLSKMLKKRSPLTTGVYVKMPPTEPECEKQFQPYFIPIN
Method: Briefly, mouse embryonic fibroblast cells isolated from Velocimmune® mice (VI-fibroblasts) were stably transfected with human CTLA-4 (amino acids M1-N223, NCBI Accession # NM_005214.4). […] Additionally, a reporter T cell line generated by transducing immortal human Jurkat T-cells (ATCC, Manassas, Va.) with an NFAT-Luc lentivirus reporter (Qiagen, Germantown, Md.) and h, m or mf CTLA-4 chimeric constructs was also assessed in this assay.
Approximately 2.0×10⁴ VI-fibroblast/hCTLA-4 cells or 1.0×10⁴ Jurkat/NFAT chimera cells were seeded separately onto 96-well carbon electrode plates (MULTI-ARRAY high bind plate, Meso Scale Discovery (MSD; Rockville, Md.)) and incubated for 1 hour (h) at 37° C. Nonspecific binding sites were blocked by 2% BSA (w/v) in PBS for 1 hour at room temperature (RT). […] Plates were then washed to remove unbound antibodies using an AquaMax2000 plate washer with a cell washing head (MDS Analytical Technologies, Sunnyvale, Calif.). The plate-bound antibodies were detected with either SULFO-TAG™-conjugated goat polyclonal anti-human IgG antibody specific for heavy and light chains (Jackson lmmunoresearch, West Grove, Pa.) or a SULFO-TAG™-conjugated goat polyclonal anti-mouse IgG antibody specific for Fcγ fragment (Jackson lmmunoresearch) for 1 h, RT.
After washes, plates were developed with Read Buffer (MSD) according to manufacturer's recommended procedure and luminescent signals were recorded with a SECTOR Imager 600 (MSD). Luminescence intensity, measured in relative light units (RLU), was recorded to indicate the binding intensity of each antibody at the range of concentrations.

Row | Binder | EC50 [nM] | ratio of RLU signal to parental VI-fibroblast at 0.6 nM Ab [ratio]
1 | H1M20370N (antibody, mouse IgG1, V domains shown, hybridoma antibody, human variable domains, mouse IgG1 Fc (H1M)) VH: QVQLHESGPGLVKPSQTLSLTCSVSGGSISNGGYYWSWIRQHPGQGLEWIGYIYYIGNTYYNPSLESRVTMSIDTSKNQFSLKLSSVTAADTAIYYCARQEFVPGAEYFLHWGQGILVTVSS VL: DIRMTQSPSSLSASVGDRVTITCRASQTVNTFLNWYQQKPGKAPKLLIFGASSLQSGVPSRFSGSGSGTDFTLTISGLQPEDFAIYYCQQSYSVPPITFGQGTRLEIE | 0.22 | 23
2 | H1M20372N (antibody, mouse IgG1, V domains shown, hybridoma antibody, human variable domains, mouse IgG1 Fc (H1M)) VH: EVQLVESGGGLVQPGRSLRLSCAGTGFIFDDYAMHWVRQAPGKGLEWVSGISWNSNSLGYADSVKGRFTISRDNAKKSLYLQMSSLRAEDTALYYCVKDVTRLELRGFLDYWGQGTQVTVSS VL: DIQMTQSPSSLSASVGDRVTITCRASQDIRNDLGWHQQKSGKAPKSLIYAASSLQSGAPSRFSGSGSGTEFTLTISSLQPEDSATYYCLQQNSYPPTFGQGTKVEIK | 0.88 | 14
3 | H1M20393N (antibody, V domains shown, hybridoma antibody, human variable domains, mouse IgG1 Fc (H1M)) VH: DRQMVESGGGVVQPGRSLRLSCIASGFIISRYGMHWVRQAPGKGLEWVAVIWYDGRNKNYADSVKGRFTISRDNSKNTLYLEMNSLRAEDTAVYYCGRVHQFGAFDIWGQGTMVTVSS VL: not shown | 7.3 | 12
4 | H2M20361N (antibody, mouse IgG2, V domains shown, hybridoma antibody, human variable domains, mouse IgG2 Fc (H2M)) VH: QVQLQESGPGLVKPSQTLSLTCTVSGGSINNGGHYWTWIRQHPGKGLEWIGYIYYIGTTYYNPSLESRLSLSVDTSKNQFSLKLSSVTAADTAIYYCARSSLSVSEAFDVWGQGTMVTVSS VL: DIQMTQSPSSLSASVGDRITITCRGSQNIGSFLSWYQQRPGKAPKLLIFGAYNLQGGVPSRFSGSGSGTDFTLTISSLQPEDFATYFCQQSYSTPPITFGQGTRLEIK | 0.32 | 19
5 | H2M20368N (antibody, mouse IgG2, V domains shown, hybridoma antibody, human variable domains, mouse IgG2 Fc (H2M)) VH: QVQLQESGPGLVRPSQTLSLTCTVSGGSISNGGYYWTWIRQNPGKGLEWIGYIYYIGTTYYNPSLESRLSLSVDTSKNQFSLKLTSVTAADTAVYYCARSSLAVSEAFDIWGQGTMVTVSS VL: DIQMTQSPSSLSASVGDRFTITCRASQSIGSFLSWYQQKPGKAPKLLIYAASSLQSGVPSRFSGSGSGTDFTLTISSLQPEDFATYYCQQSYNTPPITFGQGTRLEIK | 0.26 | 25
6 | H2M20369N (antibody, mouse IgG2, V domains shown, hybridoma antibody, human variable domains, mouse IgG2 Fc (H2M)) VH: QVQLVQSGTEVKRPGASVKVSCKASGFTFTGYYIYWVRQAPGEGLEWMGWINPHSGGTKYAQKFQGRVTLTRDTSINTAYLDLISLRSDDTAVYYCARIGGGGYSSYFDYWGQGTLVTVSS VL: DIQLTQSPSSLSASVGDRVTITCRASQTISTYLNWYQQKPGNAPKLLIYAASSLQSGVPSRFSGRGSGTDFTLTISSLQPEDFATYYCQQGYTTPPITFGQGTRLEIK | 0.9 | 18
7 | H2M20373N (antibody, mouse IgG2, V domains shown, hybridoma antibody, human variable domains, mouse IgG2 Fc (H2M)) VH: EVQLLESGGGLVQPGGSLRLSCAASGFTFSSYAMSWVRQAPGKGLEWVSDISGSGLSTYYADSVKGRFAISRDNSKNMLYLQMNRLRAEDTAVYYCAKEPSHWNGEAFDIWGQGTMVTVSS VL: DIQMTQSPSSVSASVGDRVTITCRASQDISSWLAWYQQKPGKAPKLLIYTTANLQSGVPSRFSGSGSGTDFTLTISSLQSEDFATYYCQQANSFPFTFGSGTKVDIK | 0.062 | 22
8 | H2M20375N (antibody, mouse IgG2, V domains shown, hybridoma antibody, human variable domains, mouse IgG2 Fc (H2M)) VH: QLQLQESGPGLVKPSETLSFTCTVSGGSISSNYYYWGWVRQSPGKGLEWIGSIYHTGNAYDNPSLKSRVTISVDTSKNQFSLNLNSVTAADTAIYYCARHHSSSSWWYFDVWGRGTLVIVSS VL: EIVLTQSPDTLSLSPGERATLSCRASQTVSNSHLAWYQQKPGQAPRLLIYGTSSRATGIPDRFSGSGSGTDFSLTIIRLEPDDFAVYFCQQHESSPPTFGQGAKLEIK | 0.19 | 18
